Experimental data as given in patent US10072073.
Numbering of substitutions follows the chain as printed. Values belong to the molecule of their own block, whether it stands above or below them.

Experiments:
CD55 [1] = biological target: CD55 (UniProt P08174); test: indirect immunofluorescence flow cytometry on H69 lung tumour cells, mAb 5 µg/ml
CD55 [2] = biological target: CD55 (UniProt P08174); test: indirect immunofluorescence flow cytometry on AGS gastric tumour cells, mAb 5 µg/ml
CD55 [3] = biological target: CD55 (UniProt P08174); test: indirect immunofluorescence flow cytometry on MCF7 breast tumour cells, mAb 5 µg/ml
CD55 [4] = biological target: CD55 (UniProt P08174); test: indirect immunofluorescence flow cytometry on ST16 gastric tumour cells, mAb 5 µg/ml
CD55 [5] = biological target: CD55 (UniProt P08174); test: indirect immunofluorescence flow cytometry on MKN45 gastric tumour cells, mAb 5 µg/ml
CD55 [6] = biological target: CD55 (UniProt P08174); test: indirect immunofluorescence flow cytometry on OAW42 ovarian tumour cells, mAb 5 µg/ml
CD55 [7] = biological target: CD55 (UniProt P08174); test: indirect immunofluorescence flow cytometry on OVCAR3 ovarian tumour cells, mAb 5 µg/ml
CD55 [8] = biological target: CD55 (UniProt P08174); test: indirect immunofluorescence flow cytometry on OVCAR4 ovarian tumour cells, mAb 5 µg/ml
CD55 [9] = biological target: CD55 (UniProt P08174); test: indirect immunofluorescence flow cytometry on C170 colorectal tumour cells, mAb 5 µg/ml
CD55 [10] = biological target: CD55 (UniProt P08174); test: indirect immunofluorescence flow cytometry on HT29 colorectal tumour cells, mAb 5 µg/ml
CD55 [11] = biological target: CD55 (UniProt P08174); test: indirect immunofluorescence flow cytometry on OVCA433 ovarian tumour cells, mAb 5 µg/ml
CD55 [12] = biological target: CD55 (UniProt P08174); test: indirect immunofluorescence flow cytometry on ASPC1 pancreatic tumour cells, mAb 5 µg/ml
CD55 [13] = biological target: CD55 (UniProt P08174); test: indirect immunofluorescence flow cytometry on Panc1 pancreatic tumour cells, mAb 5 µg/ml
CD55 [14] = biological target: CD55 (UniProt P08174); test: indirect immunofluorescence flow cytometry on MB-MDA-231 breast tumour cells, mAb 5 µg/ml
CD55 [15] = biological target: CD55 (UniProt P08174); test: indirect immunofluorescence flow cytometry on Colo201 colorectal tumour cells, mAb 5 µg/ml
CD55 [16] = biological target: CD55 (UniProt P08174); test: indirect immunofluorescence flow cytometry on Colo205 colorectal tumour cells, mAb 5 µg/ml
[17] = biological target: human class I histocompatibility antigens (HLA-A,B,C) (human); test: indirect immunofluorescence flow cytometry on Colo205 cells; mouse IgG at 5 µg/ml [d]
[18] = biological target: human class I histocompatibility antigens (HLA-A,B,C) (human); test: indirect immunofluorescence flow cytometry on H69 lung tumour cells, mAb 1 µg/ml
[19] = biological target: human class I histocompatibility antigens (HLA-A,B,C) (human); test: indirect immunofluorescence flow cytometry on AGS gastric tumour cells, mAb 1 µg/ml
[20] = biological target: human class I histocompatibility antigens (HLA-A,B,C) (human); test: indirect immunofluorescence flow cytometry on MCF7 breast tumour cells, mAb 1 µg/ml
[21] = biological target: human class I histocompatibility antigens (HLA-A,B,C) (human); test: indirect immunofluorescence flow cytometry on ST16 gastric tumour cells, mAb 1 µg/ml
[22] = biological target: human class I histocompatibility antigens (HLA-A,B,C) (human); test: indirect immunofluorescence flow cytometry on DU4475 breast tumour cells, mAb 1 µg/ml
[23] = biological target: human class I histocompatibility antigens (HLA-A,B,C) (human); test: indirect immunofluorescence flow cytometry on MKN45 gastric tumour cells, mAb 1 µg/ml
[24] = biological target: human class I histocompatibility antigens (HLA-A,B,C) (human); test: indirect immunofluorescence flow cytometry on OAW42 ovarian tumour cells, mAb 1 µg/ml
[25] = biological target: human class I histocompatibility antigens (HLA-A,B,C) (human); test: indirect immunofluorescence flow cytometry on OVCAR3 ovarian tumour cells, mAb 1 µg/ml
[26] = biological target: human class I histocompatibility antigens (HLA-A,B,C) (human); test: indirect immunofluorescence flow cytometry on OVCAR4 ovarian tumour cells, mAb 1 µg/ml
[27] = biological target: human class I histocompatibility antigens (HLA-A,B,C) (human); test: indirect immunofluorescence flow cytometry on C170 colorectal tumour cells, mAb 1 µg/ml
[28] = biological target: human class I histocompatibility antigens (HLA-A,B,C) (human); test: indirect immunofluorescence flow cytometry on HT29 colorectal tumour cells, mAb 1 µg/ml
[29] = biological target: human class I histocompatibility antigens (HLA-A,B,C) (human); test: indirect immunofluorescence flow cytometry on OVCA433 ovarian tumour cells, mAb 1 µg/ml
[30] = biological target: human class I histocompatibility antigens (HLA-A,B,C) (human); test: indirect immunofluorescence flow cytometry on ASPC1 pancreatic tumour cells, mAb 1 µg/ml
[31] = biological target: human class I histocompatibility antigens (HLA-A,B,C) (human); test: indirect immunofluorescence flow cytometry on Panc1 pancreatic tumour cells, mAb 1 µg/ml
[32] = biological target: human class I histocompatibility antigens (HLA-A,B,C) (human); test: indirect immunofluorescence flow cytometry on MB-MDA-231 breast tumour cells, mAb 1 µg/ml
[33] = biological target: human class I histocompatibility antigens (HLA-A,B,C) (human); test: indirect immunofluorescence flow cytometry on Colo201 colorectal tumour cells, mAb 1 µg/ml
[34] = biological target: human class I histocompatibility antigens (HLA-A,B,C) (human); test: indirect immunofluorescence flow cytometry on Colo205 colorectal tumour cells, mAb 1 µg/ml
[35] = biological target: human class I histocompatibility antigens (HLA-A,B,C) (human); test: indirect immunofluorescence flow cytometry on Colo205 cells; W6/32 at 5 µg/ml [c]
Polyvalent Le^a-HSA = test: SPR (Biacore X), polyvalent Le^a-HSA coupled to CM5 chip, mAb in flow

UniProt P08174, sequence (P08174 35-353 limits assumed): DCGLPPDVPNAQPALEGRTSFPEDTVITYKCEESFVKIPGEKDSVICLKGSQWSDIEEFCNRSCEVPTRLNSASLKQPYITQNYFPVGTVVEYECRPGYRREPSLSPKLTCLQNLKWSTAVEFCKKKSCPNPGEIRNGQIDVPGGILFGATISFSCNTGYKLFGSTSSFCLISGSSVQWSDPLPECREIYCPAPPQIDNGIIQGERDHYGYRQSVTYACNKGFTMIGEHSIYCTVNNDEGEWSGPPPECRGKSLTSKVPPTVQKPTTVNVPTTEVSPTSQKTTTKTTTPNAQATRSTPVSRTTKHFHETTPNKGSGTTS

Gm value (CD55 [1]): 28.1 Gm
Gm value (CD55 [2]): 1880 Gm
Gm value (CD55 [3]): 461 Gm
Gm value (CD55 [4]): 903 Gm
Gm value (CD55 [5]): 231 Gm
Gm value (CD55 [6]): 401 Gm
Gm value (CD55 [7]): 412 Gm
Gm value (CD55 [8]): 328 Gm
Gm value (CD55 [9]): 858 Gm
Gm value (CD55 [10]): 916 Gm
Gm value (CD55 [11]): 686 Gm
Gm value (CD55 [12]): 7010 Gm
Gm value (CD55 [13]): 472 Gm
Gm value (CD55 [14]): 1160 Gm
Gm value (CD55 [15]): 22.3 Gm
Gm value (CD55 [16]): 44.4 Gm
Molecule: 791T/36 (antibody)

Gm [17]: 25.4
Molecule: IgG Isotype control (antibody)

Gm value [18]: 109 Gm
Gm value [19]: 1560 Gm
Gm value [20]: 515 Gm
Gm value [21]: 33.5 Gm
Gm value [22]: 1360 Gm
Gm value [23]: 15.4 Gm
Gm value [24]: 318 Gm
Gm value [25]: 633 Gm
Gm value [26]: 16.4 Gm
Gm value [27]: 16.5 Gm
Gm value [28]: 1160 Gm
Gm value [29]: 6790 Gm
Gm value [30]: 1780 Gm
Gm value [31]: 20.1 Gm
Gm value [32]: 758 Gm
Gm value [33]: 603 Gm
Gm value [34]: 1300 Gm
Gm [35]: 2600
Molecule: W6/32 (antibody)

Kd (Polyvalent Le^a-HSA): 0.63 nM
koff (Polyvalent Le^a-HSA): 0.000118 s⁻¹
kon (Polyvalent Le^a-HSA): 190000 M⁻¹ s⁻¹
B1: FG88.2 mAb (antibody, V domains shown)
VH: EVKLEESGGGLVQPGGSMKLSCAASGFTFSDAWMNWVRQSPEKGLEWVAEIRSKVINPAIYYAESVKERFTILRDDSKSSVYLQMNSLRAEDTGIYYCSRSTMITTRDPSRYFDVWGAGTTVTVSS
VL: DIQMTQSPTSLSASVGETVTITCRTSENIHNFLTWYQQKQGKSPQVLVYNAKTLPDGVPSRFSGSGSGTQYSLKINSLQPEDFGTYYCQHFWSSPWTFGGGTKLEIKR

Kd (Polyvalent Le^a-HSA): 0.34 nM
koff (Polyvalent Le^a-HSA): 5.8e-05 s⁻¹
kon (Polyvalent Le^a-HSA): 170000 M⁻¹ s⁻¹
B2: FG88.7 mAb (antibody, V domains shown)
VH: B1 VH with A23V, V55A, E68G
VL: B1 VL with G68E
